Target: T1, LasR (Pseudomonas aeruginosa PA14?) (UniProt A0A0H2Z901)
T1 sequence: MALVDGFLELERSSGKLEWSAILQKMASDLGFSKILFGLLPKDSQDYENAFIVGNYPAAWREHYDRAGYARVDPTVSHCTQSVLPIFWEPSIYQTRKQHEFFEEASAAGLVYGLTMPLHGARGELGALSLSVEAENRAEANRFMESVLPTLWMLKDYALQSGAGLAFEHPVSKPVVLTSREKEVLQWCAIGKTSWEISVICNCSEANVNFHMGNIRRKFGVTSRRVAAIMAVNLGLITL
Assay: EMSA
Conditions: LasR EMSA: 20 mM Tris-HCl pH 7.5, 50 mM KCl, 1 mM EDTA, 1 mM DTT, 100 ug/ml BSA, 10% glycerol, room temp 20 min, 1 pM each specific and nonspecific probe

| Sequence | binding |
| --- | --- |
| GTCCGAATTCCCGGGAAGCGCCCTGTGACGGACTTCGAATCCTTGCGTCGCGCTCCGTCCTCCGGATTGAGCGGCGCGCTGCGGCGGCCGCGCTCCGGCGCAGCGCCACTGCCAGATCTGGCAGTTGTCGCTGGCGGGGACGGAGGTTTTAGTAGCCGCACTTTTTTCCAGGGCCGGGCAGTGGATCCGGAC (double strand) [PA14_40310 promoter] | binds |
| GTCCGAATTCCCGTGCTACCCCCGGCAGGCGTAGCCGCGGCAGCCTGCCTCGGCAAAAAGCCATCAGCCGGCGCGCTTCGACGCCCCTCATACCGCCCTTTCGCCAACTACCAATTCTCATAGTTGTGAGGGGAAATTTGTATCTTATTTTAAATACCCACGAAACATATAAAAACACACACAGCGAAACACTTCGGAAACCGGATCCGGAC (double strand) [PA14_48530 promoter] | binds |
| GTCCGAATTCCTTCTGATGCCGGCGCGGGCGCCCGGCCGGTATGGCCGGCAAGCCCGTCGACGGCTGTCCAGCTACCAGATCCGGTAGCCCTGCCAGATTTCGCAGGCGACCAGATCTGGCAGGTTGTTGGGCTCCCGGTGCCATGCAACCTATTACGCCTCTCGCCCCCCACCCGTTCGCGCAGGATCCGGAC (double strand) [PA14_37745 promoter] | binds |
| GTCCGAATTCGCAATGGCAGACCTTGCCGTTCAGCGACAGGCAGATCGACGCCGACCCGCAACTGCAACGGCTAAGCATTCGCGAATGATAAGCAATGCCTATCAGATCTGATGGGAAAAAAACTGACGGTTTTTCCGCGCTCGTTCGTCTTTAACCATAGAGGCGGCCCACAGCCGCCCGGTTCCAGGGAACACGTGCAGGATCCGGAC (double strand) [PA14_33830 promoter] | binds |
| GTCCGAATTCGCGGCTGAATCCGGCTGGGCAGCTGGCGATCATATCGCCAGCCACCCTGCTGGCCCCCGGCGCAGAGCGGCGCGGCTATGCTCGTGCGCCCGGAACGGCCCTATCCGTTCTGGGAGCTACCCCCTCGCCACCCTCGACTAGCATGACCAGGGAGGCCCGCAGTGGACGCCCAGGGCTAGGAGCCGCAGGCGGATCCGGAC (double strand) [PA14_41500 promoter] | binds |
| GTCCGAATTCGGCGGCCCTTTGCCTGCCTCTACCGGCTCACAGTGCGGGTGCCGACCGCTTTGCATTCCGCGACATCCATCAGGAGTGGGTAGCGAATCTGACCGGCCCGTCACATTTGGTAGGGACCTCAAACCGGCACCGAGGGCTAGGATCAGCCCGCTTCGAAATGAATCCGGTTCTGGAAAGGATCCGGAC (double strand) [PA14_53250 (cbpD) promoter] | binds |
| GTCCGAATTCGTGGAGGATCGCGTCGCGCAGCTGGCGATAGAGCTGGCCGACCAGGTCGTGGCGGCCGTCGAGGATCAGTTGCAGTTCCATGGCGAAATTGGCTACCTGGTATTTCTGGTAATTGGCTCTTCGTGGAAGCCAAAGGCAGGCTTAGTGTTACCCCATGCCGCGCCGCTTTCCACTCTCGCGGCTGCCAATCAGCCGGATCCGGAC (double strand) [PA14_03490 promoter] | binds |
| GTCCGAATTCTGGATCGTTTCGTCACAGGAAACGCTGGAGCGCCTATTCCAGAGCGCTTCGAACAATCGGTAAAAATAAAATCCAAATAATCAGACGCAGTTCAAAAACAACCAGAACAGATAGTTTTTCCGCCTTTCCCAACATGCTCCTCTCGCCTTGACTCGTTCGATGCAGCGGATCGCCCATGCGTATGTCCGGCATTGGATCCGGAC (double strand) [PA14_07430 promoter] | binds |
| GTCCGAATTCTTGTTCTATATGTTCGAACTTGGCTTTGCTCGTTGTTTTAATTTTGCGGAATAACCTCTGGAACTATTCATATGAATTTTTGAAAGTTTGGTTTACCTGAGAGATTTATGAGTTGACCTTGTCACGATGGCAGGACTCATGGTTCGCAGGAGTCAACAAACCAGGATCCGGAC (double strand) [PA14_18800 promoter] | binds |
| GTCCGGATCCAGTCGCACGGCGACTGCGCCGCCCCCATGGGCGCGGCGAGTCTCTCATCGGACTGAAGGGAGATTATTGGCGAGAGGACTGCGGCGGATAACCTGGCAGAACTGAACGTATCGTTGAATGGAATTCAACGATACCCAAGCCGGGCGGGAATCGCCCGGGCGAGGCCGCGTTCCCGGTGGCCCGCTCCTCGCCGCTAAGCTTGGAC (double strand) [PA14_33890 promoter] | binds more weakly |
| GTCCGGATCCCGAGGCTCTCCAGAGGAATCCACTGTTGTCTGCCTTATTTTTTATAAATTGTTAACTACCTGTTTTGGTAGGGTTTTCCAAATGGCCATCAATGTCGTTATGATGGCTATAGCCAAGCCGTAAAGGGCATGGACGCAGACGCCTGACGTTTGGCTGAAAATCTTTCATTGGAATTCGGAC (double strand) [lrs2 promoter] | binds |
| GTCCGGATCCGTCCGAACCCATGAGATGGCAAACCAATGACAACCCACTTTGCTCGGCAAATCGCCTCCCAGATCTCACAGTTCGAGGCGCTCGGCCTGGGCTCCACGGGGGCGACGGCATGCCTGGAAGCGAGCGGCCATCCATCGGGCCGATAGCGCTCCACCCCGTCTCGCCTGCCAGAATTCGGAC (double strand) [lrs1 promoter] | binds |
| GTCCGGATCCGTCTACCGCAGGGCATTCCGGCGTTTGTCGCGATCAGGGCGGGGGCATGGTTGCAGAGACGGCGGAAGGCTTCACCTACCACAATTGGCAGAGTCGCGGCGGCGATGCTCCGCGCCGGGTTCAACCGGCTTCGCTGAGTTCGGCGACCACCACTCCGGGAAGGTCTTTCAGCAGTGCCGGGGACAGCAGGAATTCGGAC (double strand) [PA14_34870 promoter] | binds |
| GTCCGGATCCGTTGAAGAGTGAAGCCTTTGGGGGAAGGGCCGCCGCGGCGGAATCCAATCCTTCATGTTGCCAGCTTTGGCAGAGGGATGGGGCCGGCGGCGGTTCGCCTTCCTATGTCAGTTTGTCGCAGCGGGCCGGCCCGCCGCGGTTCAGGACCTGTCGCTGGCGGCGATCTTCGCGAATTCGGAC (double strand) [PA14_23220 promoter] | no binding |
| GTCCGGATCCTTCCGTGAAGTGTTTCAAATAGCCAGCATCCCTGGTCGCTGATGTGGATTGCATAAAACACAGAACGCTCGTACCGGCTCAACTACAAGATCTGGTAGGTGCCAGACAGGGTATGCGGGATTGCTAAGCTGATGCTTCCTGCAATGCCGGAGGTTGTAGCCAAGTTGTAATTTTATTCTTTCGGTACGCAGGAAAGAATTCGGAC (double strand) [PA14_09480 (phzA1) promoter] | binds |

Source: paper PMC3460626
